# In PMC6698954 (Antibodies, 2018):
# B1: anti-WEEV E2/E3E2 single-domain antibody WC10 (VHH)
# VHH: DVQLQASGGGLVEAGGSLRLSCTTSGISVRNSDMGWYRQGPGKQRELIARSSRGGATNYLDSVTGRFTISRDNIKNTVFLQMNSLKPEDTAVYYCNTNPINHWNVWGQGTQVTVSS
# notes: also called Bt-WC10
# B2: anti-WEEV E2/E3E2 single-domain antibody WH11 (VHH)
# VHH: EVQLQASGGGLVQAGGSLRLTCVASGLTFVNYALDWYRQAPGKERELVAGMWSDGVAYYGDFVKGRFTMSRDNAKNMVYLQMNSLEPEDTAVYSCAARSRPTTQYDYWGQGTQVTVSS
# notes: also called Bt-WH11
# B3: anti-WEEV E2/E3E2 single-domain antibody WD11f (VHH)
# VHH: EVQLQASGGGLVQSGGSLRLSCAGSGGTESSYRMAWFRQAPGTERVFVARVSDGGGSILYADSAKGRFTISRDNGKNTIHLQMFSLKPEDTAVYFCAAAFSWMPPSTVAADYEYWGQGTQVTVSS
# notes: also called Bt-WD11f
# B4: anti-WEEV E2/E3E2 single-domain antibody WB9 (VHH)
# VHH: DVQLQASGGGLVQAGGSLRLSCATSGISVSNSDMGWYRQGPGKQRELVARNSRAGTTNYLDSVKGRFTISRDNAKNMVFLQMNSLKLEDTAVYYCNTNPINRWNIWGQGAQVTVSS
# notes: also called Bt-WB9
# B5: anti-WEEV E2/E3E2 single-domain antibody WF4 (VHH)
# VHH: DVQLQASGGGLVQAGGSLRLSCAVSDNTTSLNGMGYYRGPPGKQREFVAYARNNGAPKYADSVMGRFTISVDNSKATVYLQMNNLGPEDTALYYCYAPDRWHTYWAGGTQVTVSS
# notes: also called Bt-WF4
# B6: anti-WEEV E2/E3E2 single-domain antibody WE10 (VHH)
# VHH: DVQLQASGGGLVQAGGSLRLSCVASGLTFVNYAIDWYRQAPGKEREVVAGMWNDGVAYYGDFVKGRFTIARDNAKNTVYLQMNNLKPEDTAVYFCGARSRPNLQYDYWGQGTQVTVSS
# notes: also called Bt-WE10
# Biological target: T1, Recombinant WEEV glycoprotein (E2/E3E2) (Western equine encephalitis virus, …, UniProt P13897)
# T1 construct: source: bought: IBT Bioservices
# Test: SPR; ProteOn XPR36; […] (20 µg/mL in 10 mM sodium acetate pH 5.0); […]
# Conditions: both partners purified
Binder,Kd [nM],koff [s⁻¹],kon [M⁻¹ s⁻¹]
B1,8.5,0.85,1e+08
B2,22,0.0033,150000
B3,7.2,0.53,7.3e+07
B4,2.6,0.0029,1.1e+06
B5,24,0.0015,63000
B6,12,0.00083,70000
